Assay [1] has as its target T1, human serum albumin (human, UniProt P02768 25-609).
T1 construct: also called HSA; HSA-biotin
In words: BLI (Octet RED96), biotinylated HSA on streptavidin biosensors, HE-1 titrated 100-3.125 nM, pH 7.4, 1:1 fit. For orientation: Biolayer interferometry detects binding as a change in optical thickness at a sensor tip.

Assay [2] has as its target T1, human serum albumin. In words: ELISA, albumin coated plates, single domain antibody titrated, pH 7.4.
The target of assay [3] is T2, cynomolgus monkey serum albumin (cynomolgus monkey, UniProt A2V9Z4 25-608).
T2 construct: Coated on ELISA plates; also called cyno albumin
T2 sequence (A2V9Z4 25-608 limits assumed): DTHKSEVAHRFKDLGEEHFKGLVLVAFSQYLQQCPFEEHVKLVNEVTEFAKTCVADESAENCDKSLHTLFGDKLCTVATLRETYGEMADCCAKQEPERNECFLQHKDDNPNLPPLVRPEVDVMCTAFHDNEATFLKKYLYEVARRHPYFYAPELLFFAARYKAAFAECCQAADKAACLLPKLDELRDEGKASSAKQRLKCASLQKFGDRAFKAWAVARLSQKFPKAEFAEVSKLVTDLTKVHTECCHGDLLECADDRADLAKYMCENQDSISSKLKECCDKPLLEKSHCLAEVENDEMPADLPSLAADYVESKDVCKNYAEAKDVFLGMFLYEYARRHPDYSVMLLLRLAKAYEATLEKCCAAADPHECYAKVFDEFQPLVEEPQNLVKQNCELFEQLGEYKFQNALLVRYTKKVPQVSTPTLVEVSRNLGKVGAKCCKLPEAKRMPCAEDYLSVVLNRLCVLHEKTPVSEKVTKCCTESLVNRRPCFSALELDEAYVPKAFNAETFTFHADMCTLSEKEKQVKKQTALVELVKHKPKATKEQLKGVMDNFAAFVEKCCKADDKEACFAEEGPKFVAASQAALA
Described as above.

In assay [4] the target is T1, human serum albumin. In words: BLI (Octet RED96), biotinylated HSA on streptavidin biosensors, HE-1 titrated 100-3.125 nM, association and dissociation at pH 5.5, 1:1 fit.
A further assay has as its target T3, Mouse Albumin (mouse, UniProt P07724).
T3 construct: coated on the ELISA plate; not described further; also called mouse serum albumin
In words: ELISA on an albumin coated plate, single domain antibody titrated, HRP secondary antibody, OD 450 nm.

Assay [5] concerns the target T1, human serum albumin. The assay is described as above.
The target of assay [6] is T2, cynomolgus monkey serum albumin. The description is as above.
For assay [7], the target named is T1, human serum albumin. Kind of assay: ELISA, albumin coated plates, single domain antibody titrated, pH 5.5. For orientation: In an ELISA, binding on a coated surface is turned into a signal by an enzyme label.
Assay [8] deals with T2, cynomolgus monkey serum albumin. The assay is described as above.
For assay [9], the target named is T1, human serum albumin. In words: Octet, biotinylated human serum albumin on streptavidin biosensors, acidic buffer, association 1 (saturation using SDA).
Assay [10] deals with T4, TROP2 on NCI-H292 tumor cells (UniProt P09758 27-274).
T4 sequence (looked up): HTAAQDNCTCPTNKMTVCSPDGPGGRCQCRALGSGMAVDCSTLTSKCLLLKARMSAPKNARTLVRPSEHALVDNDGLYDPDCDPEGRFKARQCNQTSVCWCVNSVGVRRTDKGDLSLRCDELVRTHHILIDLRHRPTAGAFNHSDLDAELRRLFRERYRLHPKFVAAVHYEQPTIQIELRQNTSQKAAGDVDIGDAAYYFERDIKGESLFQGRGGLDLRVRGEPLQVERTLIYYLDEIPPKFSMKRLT
In words: cell-based or functional assay.

The target in assay [11] is T4, TROP2 on NCI-H292 tumor cells. In words: Trop2 binding ELISA (TROP2 as ELISA antigen, not on cells), polypeptide complex titrated, OD 450 nm.

Where a chain is given by its changes, count along the chain named.

In general, Kd refers to a measure of binding affinity in units of concentration. Broadly, the koff is the first-order rate constant of dissociation. As usually defined, the kon is the rate constant with which the complex forms. One may read the EC50 as the midpoint of the concentration-response curve. In general, EC50 (read off the curve) refers to the concentration at which the effect is half-maximal.

T3 sequence (P07724 25-608 limits assumed): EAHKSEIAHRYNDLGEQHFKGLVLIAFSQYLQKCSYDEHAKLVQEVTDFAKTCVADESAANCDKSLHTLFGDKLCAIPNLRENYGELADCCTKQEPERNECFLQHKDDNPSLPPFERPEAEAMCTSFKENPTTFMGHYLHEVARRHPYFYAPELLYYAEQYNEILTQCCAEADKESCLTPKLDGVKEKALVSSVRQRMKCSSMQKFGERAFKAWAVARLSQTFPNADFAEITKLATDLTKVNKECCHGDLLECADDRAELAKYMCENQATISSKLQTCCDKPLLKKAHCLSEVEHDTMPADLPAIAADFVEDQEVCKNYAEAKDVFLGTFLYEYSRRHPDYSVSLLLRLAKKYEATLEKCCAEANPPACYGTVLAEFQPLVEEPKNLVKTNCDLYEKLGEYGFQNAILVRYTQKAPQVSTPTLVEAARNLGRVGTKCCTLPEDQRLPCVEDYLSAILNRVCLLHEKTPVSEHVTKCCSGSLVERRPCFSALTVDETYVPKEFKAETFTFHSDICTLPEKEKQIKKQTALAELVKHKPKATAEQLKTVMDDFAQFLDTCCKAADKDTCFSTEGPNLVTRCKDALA

B1: HE-1 anti-albumin (VHH)
VHH: EVQLVESGGGLVQPGGSLRLSCAASGSTFYTAVMGWVRQAPGKGLEWVAAIRWTALTTSYADSVKGRFTISRDGAKTTLYLQMNSLRPEDTAVYYCAARGTLGLFTTADSYDYWGQGTLVTVSS
notes: Single domain antibody; also called half-life extending single domain antibody
On to B1, for which the Kd in the assay with human serum albumin [1] stood at 5.98 nM; in the assay with human serum albumin [4] it was 4.19 nM. Moreover, the koff came to 0.00341 s⁻¹ in the assay with human serum albumin [1] and 0.00186 s⁻¹ with human serum albumin [4]. The kon with human serum albumin [1] is 571000 M⁻¹ s⁻¹; with human serum albumin [4], 444000 M⁻¹ s⁻¹. Also, the EC50 in the assay with human serum albumin [2] is 1 nM; in [3] it was 1.3 nM; with human serum albumin [7], 0.9 nM; in assay [8], 1.3 nM. Also, in the assay with Mouse Albumin, the binding result is given as “binds”. The entries for the “EC50 (read off the curve)” value (in the assay with human serum albumin [5]; in assay [6]) were around 1 nM and around 2 nM, respectively.

B2: HE-2 (VHH)
VHH: B1 VHH with S110H
notes: also called (HE-2) Anti-albumin
Consider B2, for which the binding result with human serum albumin [9] is on record as “binds”.

B3: Polypeptide complex PC4 (bispecific antibody)
light: GGVDFCKIYSWPVCHQGGGGSGGLSGRSDAGSPLGLAGSGGSDIQLTQSPSSLSASVGDRVSITCKASQDVSIAVAWYQQKPGKAPKLLIYSASYRYTGVPDRFSGSGSGTDFTLTISSLQPEDFAVYYCQQHYITPLTFGAGTKVEIKRTVAAPSVFIFPPSDEQLKSGTASVVCLLNNFYPREAKVQWKVDNALQSGNSQESVTEQDSKDSTYSLSSTLTLSKADYEKHKVYACEVTHQGLSSPVTKSFNRGEC
heavy: not shown
B3: the “H292 IC50 (pM), 72 hours, tumor cell killing with CD8+ T cells” value in assay [10] was 4120 pM.

B4: Polypeptide complex PC3 (bispecific antibody)
light: DIQLTQSPSSLSASVGDRVSITCKASQDVSIAVAWYQQKPGKAPKLLIYSASYRYTGVPDRFSGSGSGTDFTLTISSLQPEDFAVYYCQQHYITPLTFGAGTKVEIKRTVAAPSVFIFPPSDEQLKSGTASVVCLLNNFYPREAKVQWKVDNALQSGNSQESVTEQDSKDSTYSLSSTLTLSKADYEKHKVYACEVTHQGLSSPVTKSFNRGEC
heavy: QTVVTQEPSLTVSPGGTVTLTCRSSTGAVTTSNYANWVQQKPGQAPRGLIGGTNKRAPGTPARFSGSLLGGKAALTLSGVQPEDEAEYYCALWYSNLWVFGGGTKLTVLGGGGSGGGGSGGGGSEVQLVESGGGLVQPGGSLKLSCAASGFTFNTYAMNWVRQAPGKGLEWVARIRSKYNNYATYYADSVKDRFTISRDDSKNTAYLQMNNLKTEDTAVYYCVRHGNFGNSYVSWFAYWGQGTLVTVSSGGGGSQVQLQQSGSELKKPGASVKVSCKASGYTFTNYGMNWVKQAPGQGLKWMGWINTYTGEPTYTDDFKGRFAFSLDTSVSTAYLQISSLKADDTAVYFCARGGFGSSYWYFDVWGQGSLVTVSSASTKGPSVFPLAPSSKSTSGGTAALGCLVKDYFPEPVTVSWNSGALTSGVHTFPAVLQSSGLYSLSSVVTVPSSSLGTQTYICNVNHKPSNTKVDKKVEPKSC
notes: TROP2 and CD3 targeting regions (anti-CD3 scFv fused to the Fab heavy chain); No mask and no HE-1
For the molecule B4, the 50% effective concentration (EC50 (read off the curve)) in assay [11] is around 0.2 nM. The “H292 IC50 (pM), 72 hours, tumor cell killing with CD8+ T cells” value in [10] came to 0.88 pM.

For the origin of these results see US20240034814A1 (JANUX THERAPEUTICS, published 2024).
